In PMC11242946 (Molecules, 2024):

Target: T1, human ACE2 protein (human, UniProt Q9BYF1 18-740)
T1 construct: No catalogue number is printed; also called angiotensin-converting enzyme-2
Assay: adsorption isotherm on protein-coupled resin (depletion, micro-BCA)
Conditions: both partners purified

T1 sequence (Q9BYF1 18-740): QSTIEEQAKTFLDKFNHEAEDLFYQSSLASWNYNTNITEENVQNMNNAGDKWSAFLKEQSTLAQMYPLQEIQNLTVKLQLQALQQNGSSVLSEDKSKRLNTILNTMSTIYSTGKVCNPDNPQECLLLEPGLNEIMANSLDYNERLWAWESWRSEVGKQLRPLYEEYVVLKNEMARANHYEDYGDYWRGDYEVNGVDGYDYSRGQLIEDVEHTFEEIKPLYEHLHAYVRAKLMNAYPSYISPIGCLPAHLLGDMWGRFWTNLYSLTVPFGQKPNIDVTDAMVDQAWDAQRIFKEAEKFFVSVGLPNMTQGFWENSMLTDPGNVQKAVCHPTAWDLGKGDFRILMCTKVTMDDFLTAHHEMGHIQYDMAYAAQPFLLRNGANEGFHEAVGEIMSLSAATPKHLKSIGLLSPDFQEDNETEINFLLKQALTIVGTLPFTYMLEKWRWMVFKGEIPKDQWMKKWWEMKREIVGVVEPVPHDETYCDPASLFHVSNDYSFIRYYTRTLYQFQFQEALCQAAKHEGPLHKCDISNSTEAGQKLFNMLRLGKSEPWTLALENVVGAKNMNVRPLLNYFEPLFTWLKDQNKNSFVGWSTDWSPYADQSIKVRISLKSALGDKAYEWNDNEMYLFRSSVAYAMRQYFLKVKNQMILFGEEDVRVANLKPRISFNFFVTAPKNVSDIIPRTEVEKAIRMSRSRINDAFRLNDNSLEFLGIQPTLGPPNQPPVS

In the case of KYPAY [functional peptide KYPAY (K5)], the Kd is reported as 12.5 µM.
